Measurements from the supplement of paper PMC10567573.

B1: NCK2 (parent)
chain: YTGPSSSGRFAGREWYYGNVTRHQ

Variants of: B1
Experiment: protein stability index of a GFP-peptide fusion (GPS, HEK-293T) (PSI 1-6); higher = more stable
Conditions: c terminus: a fixed tail appended
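Also: lentivirally expressed fusions sorted by FACS into six bins by GFP to DsRed ratio, PSI derived from sequencing read proportions per bin multiplied by bin number.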

Q: For YTGPSSSGRFAGREWYCGNVTRHQ [Y17C], which protein stability index is on record?
A: 1.77

Q: For YTGPSSSGRFAGREWYDGNVTRHQ [Y17D], which protein stability index is on record?
A: 2.64

Q: With YTGPSSSGRFAGREWYEGNVTRHQ [Y17E] as the variant, how does the protein stability index read?
A: 2.56

Q: With YTGPSSSGRFAGREWYGGNVTRHQ [Y17G] as the variant, how does the protein stability index read?
A: 2.83

Q: With YTGPSSSGRFAGREWYHGNVTRHQ [Y17H] as the variant, how does the protein stability index read?
A: 2.06

Q: With YTGPSSSGRFAGREWYIGNVTRHQ [Y17I] as the variant, how does the protein stability index read?
A: 3.41

Q: For YTGPSSSGRFAGREWYKGNVTRHQ [Y17K], which protein stability index is on record?
A: 1.91

Q: For YTGPSSSGRFAGREWYLGNVTRHQ [Y17L], which protein stability index is on record?
A: 1.58

Q: With YTGPSSSGRFAGREWYMGNVTRHQ [Y17M] as the variant, how does the protein stability index read?
A: 1.87

Q: Which protein stability index does the source give for YTGPSSSGRFAGREWYNGNVTRHQ [Y17N] here?
A: 1.59

Q: Which protein stability index does the source give for YTGPSSSGRFAGREWYPGNVTRHQ [Y17P] here?
A: 1.76

Q: For YTGPSSSGRFAGREWYQGNVTRHQ [Y17Q], which protein stability index is on record?
A: 1.97

Q: With YTGPSSSGRFAGREWYRGNVTRHQ [Y17R] as the variant, how does the protein stability index read?
A: 2.19

Q: For YTGPSSSGRFAGREWYSGNVTRHQ [Y17S], which protein stability index is on record?
A: 2.44

Q: Which protein stability index does the source give for YTGPSSSGRFAGREWYTGNVTRHQ [Y17T] here?
A: 1.36

Q: For YTGPSSSGRFAGREWYVGNVTRHQ [Y17V], which protein stability index is on record?
A: 1.89

Q: With YTGPSSSGRFAGREWYYANVTRHQ [G18A] as the variant, how does the protein stability index read?
A: 1.46

Q: For YTGPSSSGRFAGREWYYCNVTRHQ [G18C], which protein stability index is on record?
A: 2.35

Q: With YTGPSSSGRFAGREWYYDNVTRHQ [G18D] as the variant, how does the protein stability index read?
A: 2.39

Q: Which protein stability index does the source give for YTGPSSSGRFAGREWYYENVTRHQ [G18E] here?
A: 1.44

Q: With YTGPSSSGRFAGREWYYFNVTRHQ [G18F] as the variant, how does the protein stability index read?
A: 1.6

Q: With YTGPSSSGRFAGREWYYHNVTRHQ [G18H] as the variant, how does the protein stability index read?
A: 2.11

Q: Which protein stability index does the source give for YTGPSSSGRFAGREWYYINVTRHQ [G18I] here?
A: 1.74

Q: With YTGPSSSGRFAGREWYYKNVTRHQ [G18K] as the variant, how does the protein stability index read?
A: 2.64

Q: With YTGPSSSGRFAGREWYYLNVTRHQ [G18L] as the variant, how does the protein stability index read?
A: 3

Q: For YTGPSSSGRFAGREWYYMNVTRHQ [G18M], which protein stability index is on record?
A: 1.55

Q: Which protein stability index does the source give for YTGPSSSGRFAGREWYYNNVTRHQ [G18N] here?
A: 2.49

Q: With YTGPSSSGRFAGREWYYPNVTRHQ [G18P] as the variant, how does the protein stability index read?
A: 1.89

Q: Which protein stability index does the source give for YTGPSSSGRFAGREWYYQNVTRHQ [G18Q] here?
A: 2.23

Q: For YTGPSSSGRFAGREWYYRNVTRHQ [G18R], which protein stability index is on record?
A: 2.44

Q: Which protein stability index does the source give for YTGPSSSGRFAGREWYYSNVTRHQ [G18S] here?
A: 2.99

Q: For YTGPSSSGRFAGREWYYTNVTRHQ [G18T], which protein stability index is on record?
A: 1.04

Q: With YTGPSSSGRFAGREWYYVNVTRHQ [G18V] as the variant, how does the protein stability index read?
A: 2.68

Q: For YTGPSSSGRFAGREWYYWNVTRHQ [G18W], which protein stability index is on record?
A: 2.18

Q: With YTGPSSSGRFAGREWYYYNVTRHQ [G18Y] as the variant, how does the protein stability index read?
A: 2.03

Q: For YTGPSSSGRFAGREWYYGAVTRHQ [N19A], which protein stability index is on record?
A: 2.09

Q: With YTGPSSSGRFAGREWYYGCVTRHQ [N19C] as the variant, how does the protein stability index read?
A: 1.55

Q: For YTGPSSSGRFAGREWYYGDVTRHQ [N19D], which protein stability index is on record?
A: 1.76

Q: Which protein stability index does the source give for YTGPSSSGRFAGREWYYGEVTRHQ [N19E] here?
A: 1.53

Q: With YTGPSSSGRFAGREWYYGFVTRHQ [N19F] as the variant, how does the protein stability index read?
A: 2.01

Q: Which protein stability index does the source give for YTGPSSSGRFAGREWYYGGVTRHQ [N19G] here?
A: 1.63

Q: For YTGPSSSGRFAGREWYYGHVTRHQ [N19H], which protein stability index is on record?
A: 2.12

Q: Which protein stability index does the source give for YTGPSSSGRFAGREWYYGIVTRHQ [N19I] here?
A: 1.53

Q: Which protein stability index does the source give for YTGPSSSGRFAGREWYYGKVTRHQ [N19K] here?
A: 1.38

Q: For YTGPSSSGRFAGREWYYGLVTRHQ [N19L], which protein stability index is on record?
A: 2.05

Q: Which protein stability index does the source give for YTGPSSSGRFAGREWYYGMVTRHQ [N19M] here?
A: 3.08

Q: For YTGPSSSGRFAGREWYYGPVTRHQ [N19P], which protein stability index is on record?
A: 2.58

Q: For YTGPSSSGRFAGREWYYGQVTRHQ [N19Q], which protein stability index is on record?
A: 3.23

Q: Which protein stability index does the source give for YTGPSSSGRFAGREWYYGRVTRHQ [N19R] here?
A: 2.53

Q: For YTGPSSSGRFAGREWYYGSVTRHQ [N19S], which protein stability index is on record?
A: 1.44

Q: Which protein stability index does the source give for YTGPSSSGRFAGREWYYGTVTRHQ [N19T] here?
A: 2.44

Q: Which protein stability index does the source give for YTGPSSSGRFAGREWYYGVVTRHQ [N19V] here?
A: 1.61

Q: For YTGPSSSGRFAGREWYYGWVTRHQ [N19W], which protein stability index is on record?
A: 3.18

Q: With YTGPSSSGRFAGREWYYGYVTRHQ [N19Y] as the variant, how does the protein stability index read?
A: 1.91

Q: Which protein stability index does the source give for YTGPSSSGRFAGREWYYGNATRHQ [V20A] here?
A: 1.73

Q: For YTGPSSSGRFAGREWYYGNCTRHQ [V20C], which protein stability index is on record?
A: 2.13

Q: For YTGPSSSGRFAGREWYYGNDTRHQ [V20D], which protein stability index is on record?
A: 2.92

Q: For YTGPSSSGRFAGREWYYGNETRHQ [V20E], which protein stability index is on record?
A: 1.67

Q: For YTGPSSSGRFAGREWYYGNFTRHQ [V20F], which protein stability index is on record?
A: 1.59

Q: With YTGPSSSGRFAGREWYYGNGTRHQ [V20G] as the variant, how does the protein stability index read?
A: 2.57

Q: Which protein stability index does the source give for YTGPSSSGRFAGREWYYGNHTRHQ [V20H] here?
A: 2.34

Q: Which protein stability index does the source give for YTGPSSSGRFAGREWYYGNITRHQ [V20I] here?
A: 2.71

Q: With YTGPSSSGRFAGREWYYGNKTRHQ [V20K] as the variant, how does the protein stability index read?
A: 2.2

Q: With YTGPSSSGRFAGREWYYGNLTRHQ [V20L] as the variant, how does the protein stability index read?
A: 1.88

Q: With YTGPSSSGRFAGREWYYGNMTRHQ [V20M] as the variant, how does the protein stability index read?
A: 1.85

Q: Which protein stability index does the source give for YTGPSSSGRFAGREWYYGNNTRHQ [V20N] here?
A: 1.98

Q: With YTGPSSSGRFAGREWYYGNPTRHQ [V20P] as the variant, how does the protein stability index read?
A: 1.81

Q: For YTGPSSSGRFAGREWYYGNQTRHQ [V20Q], which protein stability index is on record?
A: 1.83

Q: For YTGPSSSGRFAGREWYYGNRTRHQ [V20R], which protein stability index is on record?
A: 2.42

Q: With YTGPSSSGRFAGREWYYGNSTRHQ [V20S] as the variant, how does the protein stability index read?
A: 1.66

Q: With YTGPSSSGRFAGREWYYGNTTRHQ [V20T] as the variant, how does the protein stability index read?
A: 1.75

Q: With YTGPSSSGRFAGREWYYGNYTRHQ [V20Y] as the variant, how does the protein stability index read?
A: 2.44

Q: Which protein stability index does the source give for YTGPSSSGRFAGREWYYGNVARHQ [T21A] here?
A: 1.84

Q: Which protein stability index does the source give for YTGPSSSGRFAGREWYYGNVCRHQ [T21C] here?
A: 2.37

Q: With YTGPSSSGRFAGREWYYGNVDRHQ [T21D] as the variant, how does the protein stability index read?
A: 1.76

Q: For YTGPSSSGRFAGREWYYGNVERHQ [T21E], which protein stability index is on record?
A: 2.05

Q: For YTGPSSSGRFAGREWYYGNVFRHQ [T21F], which protein stability index is on record?
A: 2.53

Q: With YTGPSSSGRFAGREWYYGNVGRHQ [T21G] as the variant, how does the protein stability index read?
A: 1.45

Q: With YTGPSSSGRFAGREWYYGNVHRHQ [T21H] as the variant, how does the protein stability index read?
A: 1.9

Q: For YTGPSSSGRFAGREWYYGNVIRHQ [T21I], which protein stability index is on record?
A: 1.87

Q: With YTGPSSSGRFAGREWYYGNVKRHQ [T21K] as the variant, how does the protein stability index read?
A: 1.74

Q: For YTGPSSSGRFAGREWYYGNVLRHQ [T21L], which protein stability index is on record?
A: 2.34

Q: Which protein stability index does the source give for YTGPSSSGRFAGREWYYGNVMRHQ [T21M] here?
A: 2.29

Q: With YTGPSSSGRFAGREWYYGNVNRHQ [T21N] as the variant, how does the protein stability index read?
A: 2.4

Q: For YTGPSSSGRFAGREWYYGNVPRHQ [T21P], which protein stability index is on record?
A: 2.06

Q: For YTGPSSSGRFAGREWYYGNVQRHQ [T21Q], which protein stability index is on record?
A: 1.78

Q: Which protein stability index does the source give for YTGPSSSGRFAGREWYYGNVRRHQ [T21R] here?
A: 1.68

Q: Which protein stability index does the source give for YTGPSSSGRFAGREWYYGNVSRHQ [T21S] here?
A: 2.13

Q: For YTGPSSSGRFAGREWYYGNVVRHQ [T21V], which protein stability index is on record?
A: 2.64

Q: For YTGPSSSGRFAGREWYYGNVYRHQ [T21Y], which protein stability index is on record?
A: 1.91

Q: With YTGPSSSGRFAGREWYYGNVTAHQ [R22A] as the variant, how does the protein stability index read?
A: 2

Q: Which protein stability index does the source give for YTGPSSSGRFAGREWYYGNVTCHQ [R22C] here?
A: 1.7

Q: Which protein stability index does the source give for YTGPSSSGRFAGREWYYGNVTDHQ [R22D] here?
A: 1.65

Q: For YTGPSSSGRFAGREWYYGNVTEHQ [R22E], which protein stability index is on record?
A: 1.85
